These are literature values, as cited in US20240209047A1, “GROWTH FACTOR CONJUGATES” (priority 2021, published 2024).

The data set has as its system non-healing diabetic ulcers. The settings on record: treated for 20 weeks or until complete wound closure; placebo 25%.

B1: PDGF: topical gel containing recombinant human PDGF-BB (Regranex®) (protein, UniProt P01127 82-190, looked up)
Platelet-derived growth …: SLGSLTIAEPAMIAECKTRTEVFEISRRLIDRTNANFLVWPPCVEVQRCSGCCNNRNVQCRPTQVQLRPVQVRKIEIVRKKPIFKKATVTLEDHLACKCETVAAARPVT
modifications: Platelet-derived growth factor subunit B topical gel (becaplermin)
Consider B1, for which the patients healed is on record as 48%.
